Source: the nanobody polyreactivity screen of Harvey et al. (2022)

Assay: yeast display, Sf9 membrane polyspecificity reagent, FACS + sequencing; frameworks hold sequencing errors
Method in brief: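 Galactose induction of a Saccharomyces cerevisiae BJ5465 synthetic nanobody display library ran 36–48 hours. The cells were then stained for 1 hour at 4 °C with 10% biotinylated, detergent-solubilized Sf9 membrane reagent, pulled down on streptavidin microbeads and FACS-sorted into low and high (top ~1%) gates on expression and reagent-binding fluorescence. Labels for polyreactivity follow the gate of origin.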

Sequence | polyreactivity (PSR sort gate)
QVQLVESGGGLVQAGGSLRLSCAASGRIFGWYAMGWYRQAPGKERELVAAISRGGTTYYADSVKGRFTISRDNAKNTVYLQMNSLKPEDTAVYYCAAPVPYYVPRRNEGDYWGQGTQVTVSS | low polyreactivity
QVQLVESGGGLVQAGGSLRLSCAASGRIFGWYAMGWYRQAPGKERELVAAISSAGRTYYADSVKGRFTISRDNAKNTDYLQMNSLKPEDTAVYYCAAEIARSFYRYTYYYWGQGTQVTVSS | high polyreactivity
QVQLVESGGGLVQAGGSLRLSCAASGRIFGYNAMGWYRHAPGTERELVAAITNGGSTNYADSVKGRFTISRDNAKNTVYLQMNSLKPEDTAVYYCAADRGGLRWFWQVLYDYWGQGTQVTVSS | low polyreactivity
QVQLVESGGGLVQAGGSLRLSCAASGRIFGYNAMGWYRQAPGKERELVAAINSDGSKNYADSVKGRFTISRDNAKNTVYLQINSLNPEDTAVYYCAARWISVWSEGAEHDYWGQGTQVTVSS | low polyreactivity
QVQLVESGGGLVQAGGSLRLSCAASGRIFGYNAMGWYRQAPGKERELVDAITTSGGSTYYADSVKGRFTISRDNAKNTVYLQMNSLKPEDTAVYYCARDSLQVFYPYASDDYWGQGTQVTVSS | low polyreactivity
QVQLVESGGGLVQAGGSLRLSCAASGRIFGYNTMGWYRQAPGKERELVAAINSGGRTYYADSVKGRFPISRDNAKNTVYLQMNSLKPEDTAVYYCATTTYKRFYRAPTSKYDYWGQGTQVTVSS | high polyreactivity
QVQLVESGGGLVQAGGSLRLSCAASGRIFGYTMGWYRQAPGKERELVAAISKSGGSTYYADSVKGRFTISRDNAKNTVYLQMNSLKPEDTAVYYCAAEYGYGKRAYDSWGQGTQVTVSS | high polyreactivity
QVQLVESGGGLVQAGGSLRLSCAASGRIFGYYAMCWYRQAPGKERELVARITWYGGDTYYADSVKGRFTISRDNAKNTVYLQMNSLKPEHTAVYYCGADFVFYRQPDTYFYPHDYWGQGTQVTVTS | low polyreactivity
QVQLVESGGGLVQAGGSLRLSCAASGRIFGYYAMGWYRQAPGKEREFVAGITQRTDSTYYADSVKGRFTISRDNAKNTVYLQMKSLKPEDTAVYYCAARGYGGYHWGYYWGQGTQVTVSS | high polyreactivity
QVQLVESGGGLVQAGGSLRLSCAASGRIFGYYAMGWYRQAPGKERELVAAINSGSRTYYADSVKGRFTISRDNAKNTVYLQMISLKAEDTAVYDCAASVRYPPYRSSDGQRGGYWGQGTEVTVSS | high polyreactivity
QVQLVESGGGLVQAGGSLRLSCAASGRIFGYYAMGWYRQAPGKERELVAAIRRSGGSTYADSVKGRFTISRDNAKNTVYLQMNSLKPEDTAVYYCAAWIYEYDYWGQGTQVTVSS | high polyreactivity
QVQLVESGGGLVQAGGSLRLSCAASGRIFGYYAMGWYRQAPGKERELVAAISYRGSSTYYADSVKGRFTISRDNAKNTVYLQMNSLKPEDTAVYYCAAKGHGRTYDYWGQGTQVTVSS | high polyreactivity
QVQLVESGGGLVQAGGSLRLSCAASGRIFGYYAMGWYRQAPGKERELVAAIYSGGSTYYADSVKGRFTISRDNAKNTVYLQMNSLKPEDTAVYYCAAYYYGWYTPSQSPKYDYWGQGTQVTVSS | high polyreactivity
QVQLVESGGGLVQAGGSLRLSCAASGRIFGYYAMGWYRQAPGKERELVADITESGTSTYYADSVKGRFTISRDNAKNTVYLQMNSLKPEDTAVYYCAAGYWWRYALYGYWGQGTQVTVSS | low polyreactivity
QVQLVESGGGLVQAGGSLRLSCAASGRIFGYYAMGWYRQAPGKERELVAGIDWSGGNTYYADSVKGRFTISRDNAKNTVYLQMNSLKPEDTAVYYCNTEGGRDTAWYDYWGQGTQVTVSS | low polyreactivity
QVQLVESGGGLVQAGGSLRLSCAASGRIFGYYDMGWYRQAPGKERELVAAITWSGGSTYYADSVKGRFTISRDNAKNTVYLQMNSLKPEDTAVYYCAAEKRYRKAFDYWGQGTQVTVSS | high polyreactivity
QVQLVESGGGLVQAGGSLRLSCAASGRIFGYYGRGWYRQAPGKERELVARISGRGGSTYYADSVKGRFTLSRDNAKNTVYLQINSLKPEDTAVYYCNVVFSFWQYYAYDQGDYWGQGTQVTVSS | low polyreactivity
QVQLVESGGGLVQAGGSLRLSCAASGRIFGYYVMGWYRQAPGKDRELVATISRVGTTNYADSVKGRFTISRDNAKNTVYLQMNSLKPEDTAVYYCNADYTGHRGGNDYWGQGTQVTVSS | low polyreactivity
QVQLVESGGGLVQAGGSLRLSCAASGRIFGYYVMGWYRQAPGKERELVAAISRSGGSTYYADSVKGRFTISRDNAKNTVYLQMNSLKPEDTAVYYCAKRVCTYGFSGYDYWGQGTQVTVSS | high polyreactivity
QVQLVESGGGLVQAGGSLRLSCAASGRIFHFNAMGWYRQAPGKERELVATITKRGGRTYYADSVKGRFTISRDNAKNTVYLQMNSLKPEDTAVYYCNADQSRYSAVSGYDYWGQGTQVTVSS | high polyreactivity
QVQLVESGGGLVQAGGSLRLSCAASGRIFHGNAMGWYRPAPGKERELVAAITSGGRTFYADSVKGRFTISRDNAKNTVYLQMNRLKPEDTAVYYCNAPSIAGYAEYNSHDYWGQGTQVTVSS | high polyreactivity
QVQLVESGGGLVQAGGSLRLSCAASGRIFHGNAMGWYRQAPGKEREMVAAITSGGRTFYADSVKGRFTISRDNAKNTVYLQMNSLIPEDTAVFYCNAPSIAGYAEYNSHDYWGQGTQVTVSS | high polyreactivity
QVQLVESGGGLVQAGGSLRLSCAASGRIFHGYAMGWYRQAPGKERELVGAINSSGGSTYYADSVKGRFTISRDNAKNTVYLQMNSLKPQDTAVYYCAADWVVSGNNPTVDTYFWYEYWGQGTQVTVSS | low polyreactivity
QVQLVESGGGLVQAGGSLRLSCAASGRIFHIYAMGWYRQAPGKERELVAAISSDGSTYYADSVKGRFTISRDNAKNTVYLQMNSLKPEDTAVYYCAVESPQGRQCYEYWGQGTQVTVSS | low polyreactivity
QVQLVESGGGLVQAGGSLRLSCAASGRIFHLYAMGWYRQAPGKERELVATITYDGGSTYYADSVKGRFTISRDNAKDTVYLQMNSLKPEDTAVYYCASPSPHVGLKWEYDYWGQGTQVTVSS | low polyreactivity
QVQLVESGGGLVQAGGSLRLSCAASGRIFHNNAMGWYIQAPGKERELVAAISTGGSTNYADSVKGRFTISRDNAKNTVYLQMNSLKPEDTAVYYCAADHPVTYPTSKFDYWGQGTQVTVSS | low polyreactivity
QVQLVESGGGLVQAGGSLRLSCAASGRIFHSYAMGWYRQAPGKERELVAAISSGGNTYYADSVKGRFTISRDNAKNTVYLQMNSLKREDTAVYYCARDWDFLYDGFHSDSYEYWGQGTQVTVSS | low polyreactivity
QVQLVESGGGLVQAGGSLRLSCAASGRIFHYAIGWYRQAPGKESELVAGISKRGGSTYYADSVKGRFTISRDNAKNTVYLQMNSLKPEDTAVYYCSKEHYWTLNGLTSYYWGQGSQVTVSS | high polyreactivity
QVQLVESGGGLVQAGGSLRLSCAASGRIFIIYAMGWYRQAPGKERELVAAITSGGGSTRYADSVKGRFPISRDNAKNTVYLQMNSLKPEDTAVYYCAAARITRGRRYDYWGQGTQVTVSS | high polyreactivity
QVQLVESGGGLVQAGGSLRLSCAASGRIFIVNAMGWYRQAPGKERELVAAISYRGGSTYYADSVKGRFTISRDNAKNTVYLQMNSLKPEDTAVYYCNTDGYIYRYRFDYWGQGTQVTVSS | low polyreactivity
